Measured values: patent US20250276090A1, “Methods and Compositions for Genetically Modifying a Cell” (Intellia Therapeutics, Inc., priority 2022, published 2025)
Strand notation (5' to 3'): a small letter for the sugar, then the base; units joined by * are phosphorothioate-linked, units joined directly phosphodiester-linked; [ ] holds rarer units or linkages, { } end groups; capitals alone tell only the bases. m = 2'-O-methyl; r = 2'-OH (RNA)

Assays:
Assay type in all cases: cell-based, human
AAVS1 = test: GFP insertion at AAVS1 in T cells with SpyCas9 RNP and gapped AAV templates, flow cytometry (Example 6); conditions: Template OG, day 7 post-editing
Experimental: AAVS1 guide RNAs were designed and screened to identify insertion SpyCas9 guides using a series of gapped AAV GFP templates (A, B, C, D, OG) each designed for a subset of the guide RNAs. Insertion efficacy in T cells was examined by assessing GFP expression by flow cytometry. The percentage of T cells positive for green fluorescent protein (“% GFP+”) was assayed by flow cytometry, following AAVS1 editing by mRNA and AAV delivery.
Healthy human donor apheresis was obtained commercially (Hemacare) from two donors (#110042863 and #110040377) and cells were washed and resuspended in MACS Buffer containing 2 mM EDTA and 0.5% Fetal Bovine Serum (FBS) in PBS. Cells were washed twice by centrifugation followed by CD3 negative selection using Easy Sep Human T Cell Isolation Kit (Stemcell, Cat. 100-0695) and separated using Easy Sep Magnets (Stemcell, Cat.18000). T cells were aliquoted and cryopreserved for future use in Cryostor® CS10 (StemCell Technologies Cat. 07930).
AAVS1 guide RNAs were assessed for insertion efficacy in T cells by assessing GFP expression by flow cytometry. The percentage of T cells positive for green fluorescent protein (“% GFP+”) was assayed by flow cytometry, following AAVS1 editing by mRNA and AAV delivery.
AAVS1 targeting sgRNAs corresponding to the flanking homology regions of Gap Templates A, B, C, D, & OG (SEQ ID NOs: 299-303) were removed from their storage plates and denatured for 2 minutes at 95° C. before cooling at room temperature for 10 minutes. RNP mixture of 20 μM sgRNA and 10 μM Cas9-NLS protein (SEQ ID NO: 296) was prepared and incubated at 25° C. for 10 minutes. 2.5 μL of RNP mixture was combined with 250,000 cells in […] P3 electroporation Buffer (Lonza). 22 μL of RNP/cell mix was transferred to the corresponding wells of a Lonza shuttle 96-well electroporation plate. Cells were electroporated in duplicate with the manufacturer's pulse code. T cell media described above without any cytokines was added to the cells immediately post electroporation. T cells were rested for 10 minutes at 37° C. Gap Template AAVs were prepared in 48 well plates (Corning, Cat.353078)) with T cell media described above containing 2× cytokines, 400 U/mL recombinant human interleukin-2 (Peprotech, Cat. 200-02), 10 ng/ml recombinant human interleukin 7 (Peprotech, Cat. 200-07), and 10 ng/ml recombinant human interleukin 15 (Peprotech, Cat. 200-15) cytokines. The multiplicity of infection (MOI) of AAVs was 3×10^^5. AAVs were added to the T cells within 15 minutes post electroporation and incubated for 48 hours at 37° C. AAV-6 vectors encoded AAVS1 Template A, B, C, D or OG. Two days post-electroporation, cells were split 1:2 in 48 well plates replenished with T cell media with 1× cytokines as described above. sgRNAs were tested each with AAV constructs and gapped template.
On day 7 post-editing, cells were phenotyped by flow cytometry to determine GFP expression to confirm integration of AAV at their GAP template site. Briefly, T cells were washed in FACS buffer containing 2 mM EDTA (Invitrogen, Cat.15575020) and 1% FBS in PBS followed by re-suspending in FACS buffer containing 1:10,000 dilution of DAPI (Biolegend, Cat.422801) nuclear stain. Cells were then processed on a Cytoflex flow cytometer (Beckman Coulter) and analyzed using the FlowJo software package. T cells were gated based on size, shape, viability, and GFP expression. Values that were not determined by the flow cytometer were denoted as “ND”. Table 18 and FIGS. 8A-8B show mean percentage of T cells positive for GFP expression.

CIITA locus = test: NGS percent editing with SpyCas9 and Nme2 base editor, CIITA (Example 9); conditions: CIITA BE guide, Day 7
Excerpt: (§1) Genomic DNA was extracted using QuickExtract™ DNA Extraction Solution (Lucigen, Cat. No. QE09050) according to manufacturer's protocol.
(§2) To quantitatively determine the efficiency of editing at the target location in the genome, deep sequencing was utilized to identify the presence of insertions, deletions, and substitution introduced by gene editing. PCR primers were designed around the target site within the gene of interest (e.g., HLA-A) and the genomic area of interest was amplified. Primer sequence design was done as is standard in the field.
(§3) Additional PCR was performed according to the manufacturer's protocols (Illumina) to add chemistry for sequencing. The amplicons were sequenced on an Illumina MiSeq instrument. The reads were aligned to the human reference genome (e.g., hg38) after eliminating those having low quality scores. Reads that overlapped the target region of interest were re-aligned to the local genome sequence to improve the alignment. Then the number of wild type reads versus the number of reads which contain C-to-T mutations, C-to-A/G mutations or indels was calculated. Insertions and deletions were scored in a 20 bp region centered on the predicted Cas9 cleavage site. Indel percentage is defined as the total number of sequencing reads with one or more base inserted or deleted within the 20 bp scoring region divided by the total number of sequencing reads, including wild type. C-to-T mutations or C-to-A/G mutations were scored in a 40 bp region including 10 bp upstream and 10 bp downstream of the 20 bp sgRNA target sequence. The C-to-T editing percentage is defined as the total number of sequencing reads with either one or more C-to-T mutations within the 40 bp region divided by the total number of sequencing reads, including wild type. The percentage of C-to-A/G mutations are calculated similarly.
(§4) Isolated, cryopreserved T cells were thawed in a water bath and plated at a density of 1×10^6 cells/mL in TCAM media containing CTS OpTmizer T Cell Expansion SFM and T Cell Expansion Supplement (ThermoFisher Cat. A1048501), 1× Penicillin-Streptomycin, 1× Glutamax, 10 mM HEPES, 200 U/mL recombinant human interleukin-2 (Peprotech, Cat. 200-02), 5 ng/mL recombinant human interleukin 7 (Peprotech, Cat. 200-07), and 5 ng/mL recombinant human interleukin 15 (Peprotech, Cat. 200-15) and 2.5% human AB serum (GeminiBio, Cat. 100-512). Technical replicates were prepared using isolated T cells from multiple donors. Data shown is from a selected donor.
(§5) LNPs were generally prepared as described in Example 1. Lipid nanoparticles in this example were prepared with molar ratios of 35 Lipid A: 47.5 cholesterol: 15 DSPC: 2.5 PEG2k-DMG. LNPs were made with a lipid amine to RNA phosphate (N:P) molar ratio of about 6. LNPs were formulated with a single RNA species or coformulated with multiple RNA species as described in Table 32. LNPs were delivered to T cells in TCAM media containing ApoE3 (Peprotech, Cat. 350-02) as described in Table 32.
(§6) On Day 1 (e.g., about 24 hours post thaw) cells were harvested and activated with TransAct™ (1:100 dilution, Miltenyi Biotec). LNPs were applied at the doses listed in Table 32 on Day 3 along with 0.5 uM of Compound 1.
(§7) Beginning on Day 4, cells were split and media refreshed regularly. On Day 7, a portion of cells were harvested for sequencing analysis at TRAC, TRBC1, TRBC2 and CIITA loci. NGS analysis was performed as described in Example 1. Table 33 and FIG. 15 show mean percent editing for these cells.

TRBC1 locus = test: NGS percent editing with SpyCas9 and Nme2 base editor, TRBC1 (Example 9); conditions: TRBC1 BE guide, Day 7
Excerpt: as §1, §2, §3, §4, §5, §6, §7

B1: G013543: AAVS1 SpyCas9 guide RNA, guide sequence SEQ ID NO: 257, chr19:55115755-55115775 (nucleic acid)
guide: mU*mG*mU*rCrCrCrUrArGrUrGrGrCrCrCrCrArCrUrGrGrUrUrUrUrArGrAmGmCmUmAmGmAmAmAmUmAmGmCrArArGrUrUrArArArArUrArArGrGrCrUrArGrUrCrCrGrUrUrArUrCrAmAmCmUmUmGmAmAmAmAmAmGmUmGmGmCmAmCmCmGmAmGmUmCmGmGmUmGmCmU*mU*mU*mU
Mean percentage of T cells positive for GFP expression (AAVS1; Donor 1): 65.25% | Mean percentage of T cells positive for GFP expression (AAVS1; Donor 2): 64.40%

B2: G026584 (nucleic acid)
guide: UCAAAGUACCCUACAGGAGGACCAGUUGUAGCUCCCUGAAACCGUUGCUACAAUAAGGCCGUCGAAAGAUGUGCCGCAACGCUCUGCCUUCUGGCAUCGUU
modifications: chemical modifications, further chemistry not given here
Mean percent editing, C to A/G (CIITA locus; BE mRNA 0.5 ug/mL): 1.2% | Mean percent editing, C to T (CIITA locus; BE mRNA 0.5 ug/mL): 91.8% | Mean percent editing, Indels (CIITA locus; BE mRNA 0.5 ug/mL): 0.9% | Mean percent editing, C to A/G (CIITA locus; BE mRNA 1.0 ug/mL): 1.4% | Mean percent editing, C to T (CIITA locus; BE mRNA 1.0 ug/mL): 91.6% | Mean percent editing, Indels (CIITA locus; BE mRNA 1.0 ug/mL): 0.6%

B3: G028986: TRBC sgRNA for Nme2 Base Editor (nucleic acid)
guide: GUGUCCUACCAGCAAGGGGUCCUGGUUGUAGCUCCCUGAAACCGUUGCUACAAUAAGGCCGUCGAAAGAUGUGCCGCAACGCUCUGCCUUCUGGCAUCGUU
modifications: chemical modifications; listed as RNA; modified_base 1: mod_base = OTHER; note = 2'-O-methyl modified nucleotide with phosphorothioate linkage; modified_base 2: mod_base = OTHER; modified_base 3: mod_base = OTHE
notes: TRBC sgRNA for Nme2 Base Editor
Mean percent editing, C to A/G (TRBC1 locus; BE mRNA 0.5 ug/mL): 1.0% | Mean percent editing, C to T (TRBC1 locus; BE mRNA 0.5 ug/mL): 94.4% | Mean percent editing, Indels (TRBC1 locus; BE mRNA 0.5 ug/mL): 0.3% | Mean percent editing, C to A/G (TRBC1 locus; BE mRNA 1.0 ug/mL): 0.9% | Mean percent editing, C to T (TRBC1 locus; BE mRNA 1.0 ug/mL): 93.3% | Mean percent editing, Indels (TRBC1 locus; BE mRNA 1.0 ug/mL): 1.0%
